Reference: the supplement of paper PMC10724198
± gives the standard deviation of the averaged measurements.

These sequences were tested on Saccharomyces cerevisiae (assay: protein stability index of tFT-peptide fusion (C-terminal peptide) (PSI (0-1 scale)); higher = more stable (slower turnover)). Details: genetic background: wild type; temperature: 30 C.
Procedure: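 Multiplexed protein stability (MPS) profiling in S. cerevisiae. Random 12-aa peptides (tFT-X12 library) are fused to the C-terminus of a sfGFP-mCherry tandem fluorescent timer, after mCherry and a GGGS linker. Cells are FACS-sorted into 8 mCherry/sfGFP bins and deep-sequenced. The protein stability index (PSI) is the read-weighted bin average, scaled from 0 (unstable) to 1 (stable). Only peptides with >10 reads are reported; cells were grown at 30 °C in SC-His with glucose.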
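Further: PSI is a weighted mean of sequencing reads over stability bins, variants kept only with over 10 reads, mCherry proximal and sfGFP distal, peptide attached via GGGS linker.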

Question: Which protein stability index does the source give for SASVACFCGLVV here?
Answer: 0.7 ± 0.023

Question: How did the protein stability index turn out when GGWWGWAGENTR was run?
Answer: 0.7 ± 0.048

Question: With SPPPTPLPPPPP as the sequence, how does the protein stability index read?
Answer: 0.628 ± 0.094

Question: SVCLLKSWHERQ was tested. Which protein stability index did it give?
Answer: 0.725 ± 0.033

Question: With PFLIPPRPFSFP as the sequence, how does the protein stability index read?
Answer: 0.709 ± 0.1

Question: PIPPPPRACGPS was tested. Which protein stability index did it give?
Answer: 0.7 ± 0.02

Question: With SLSSAPPIPPTL as the sequence, how does the protein stability index read?
Answer: 0.697 ± 0.011

Question: With SSTVGKEGTSRI as the sequence, how does the protein stability index read?
Answer: 0.69 ± 0.048

Question: How did the protein stability index turn out when LRHLPRDVPSYI was run?
Answer: 0.7049 ± 0.0046

Question: How did the protein stability index turn out when LCCPVFFAFCFP was run?
Answer: 0.683 ± 0.094

Question: Which protein stability index does the source give for PPRAPSPLPPPL here?
Answer: 0.704 ± 0.027

Question: SLSSRSVSLFKF was tested. Which protein stability index did it give?
Answer: 0.806 ± 0.13

Question: With CIFCCGWCLDRL as the sequence, how does the protein stability index read?
Answer: 0.719 ± 0.058

Question: Which protein stability index does the source give for TVTPAARTWHGR here?
Answer: 0.67782 ± 0.00032

Question: How did the protein stability index turn out when FRQQGGERVRWG was run?
Answer: 0.66 ± 0.0088

Question: How did the protein stability index turn out when PPYAPPDHPPFR was run?
Answer: 0.699 ± 0.03

Question: How did the protein stability index turn out when SRGGKMRPGGGG was run?
Answer: 0.711 ± 0.012

Question: For NNIMKPKRKIIK, which protein stability index is on record?
Answer: 0.683 ± 0.031

Question: Which protein stability index does the source give for PSPPRPSGVPVT here?
Answer: 0.674 ± 0.017

Question: For GSLPQLRAACRA, which protein stability index is on record?
Answer: 0.566 ± 0.023

Question: How did the protein stability index turn out when HTTMVGVAEGWV was run?
Answer: 0.686 ± 0.049

Question: Which protein stability index does the source give for WGGVRRVRVGGQ here?
Answer: 0.723 ± 0.053

Question: How did the protein stability index turn out when NVAKTTTRHNRP was run?
Answer: 0.718 ± 0.011

Question: For ISEGSSRFRTSL, which protein stability index is on record?
Answer: 0.6542 ± 0.0025

Question: SFPGVRHSTSDS was tested. Which protein stability index did it give?
Answer: 0.676 ± 0.017

Question: PPPPRATLPRPP was tested. Which protein stability index did it give?
Answer: 0.681 ± 0.044

Question: With RDTHSEPKPAQY as the sequence, how does the protein stability index read?
Answer: 0.721 ± 0.0088

Question: With RRVELCWAAGVR as the sequence, how does the protein stability index read?
Answer: 0.641 ± 0.025

Question: Which protein stability index does the source give for CGSVEVVVVRGS here?
Answer: 0.587 ± 0.054

Question: With RFPFGPAPPPTP as the sequence, how does the protein stability index read?
Answer: 0.744 ± 0.042

Question: For AEGGGWSFELEG, which protein stability index is on record?
Answer: 0.746 ± 0.02

Question: How did the protein stability index turn out when CTVWGLWRGWTA was run?
Answer: 0.7389 ± 0.0041

Question: RVFTGLCRPFGV was tested. Which protein stability index did it give?
Answer: 0.736 ± 0.012

Question: With SLFLVLSLAQLL as the sequence, how does the protein stability index read?
Answer: 0.579 ± 0.066

Question: How did the protein stability index turn out when LGAAFHSLTRLV was run?
Answer: 0.617 ± 0.066

Question: VTIDETMSKGIN was tested. Which protein stability index did it give?
Answer: 0.698 ± 0.045

Question: How did the protein stability index turn out when LVRVFGQSPAPL was run?
Answer: 0.696 ± 0.031

Question: Which protein stability index does the source give for PPPPPPPPHLLP here?
Answer: 0.658 ± 0.027

Question: Which protein stability index does the source give for ENQGEKQKKKKR here?
Answer: 0.685 ± 0.013

Question: Which protein stability index does the source give for PPSIEAAQPPYF here?
Answer: 0.681 ± 0.015

Question: With VLLPEPCALRFT as the sequence, how does the protein stability index read?
Answer: 0.551 ± 0.029

Question: How did the protein stability index turn out when GPSVWRPSESLV was run?
Answer: 0.748 ± 0.03

Question: For TSGTPSRTHTLR, which protein stability index is on record?
Answer: 0.612 ± 0.025

Question: Which protein stability index does the source give for SIPVPFSFPLFI here?
Answer: 0.598 ± 0.0065

Question: For LNHTRKDSLLTC, which protein stability index is on record?
Answer: 0.667 ± 0.014

Question: How did the protein stability index turn out when PPPAPPPPPTFL was run?
Answer: 0.688 ± 0.019

Question: For RAPSTPSGRPSL, which protein stability index is on record?
Answer: 0.65 ± 0.051

Question: With QSRAQTFGTSIS as the sequence, how does the protein stability index read?
Answer: 0.668 ± 0.013

Question: With RKSKYKGTQRIN as the sequence, how does the protein stability index read?
Answer: 0.564 ± 0.011

Question: For FSPSPPPPAPLH, which protein stability index is on record?
Answer: 0.729 ± 0.13

Question: For WRSIQLVHDKRR, which protein stability index is on record?
Answer: 0.6808 ± 0.0056

Question: How did the protein stability index turn out when NILTIYRTMKSR was run?
Answer: 0.6855 ± 0.0056

Question: With KKKKKKKESRSS as the sequence, how does the protein stability index read?
Answer: 0.68 ± 0.045

Question: GLCPALQFPLHE was tested. Which protein stability index did it give?
Answer: 0.68 ± 0.024

Question: Which protein stability index does the source give for SNTVSRAPFLLA here?
Answer: 0.681 ± 0.15

Question: GGPGGGRPGPRA was tested. Which protein stability index did it give?
Answer: 0.6972 ± 0.0026

Question: For TVFFVLGTESRV, which protein stability index is on record?
Answer: 0.664 ± 0.032

Question: How did the protein stability index turn out when PPPLPRHLRAPP was run?
Answer: 0.689 ± 0.018

Question: How did the protein stability index turn out when RCGGEWTGGVWR was run?
Answer: 0.845 ± 0.22

Question: For VALPPSHLSAFL, which protein stability index is on record?
Answer: 0.6887 ± 0.0039

Question: Which protein stability index does the source give for EFALVFVRARRA here?
Answer: 0.586 ± 0.047

Question: For GGGRGAGIPVIF, which protein stability index is on record?
Answer: 0.623 ± 0.073

Question: Which protein stability index does the source give for RPRVETGGLPWV here?
Answer: 0.703 ± 0.029

Question: For PSPLPPPLPPPV, which protein stability index is on record?
Answer: 0.675 ± 0.043

Question: For SCPPLKYNNKTY, which protein stability index is on record?
Answer: 0.66 ± 0.015

Question: How did the protein stability index turn out when PPPPYPLPASCL was run?
Answer: 0.653 ± 0.058

Question: CGALRLPSSREV was tested. Which protein stability index did it give?
Answer: 0.604 ± 0.021

Question: STRLFTHPRFLP was tested. Which protein stability index did it give?
Answer: 0.68 ± 0.013

Question: Which protein stability index does the source give for DRPYPTTFRSSR here?
Answer: 0.66 ± 0.017

Question: Which protein stability index does the source give for GVRSGAGGQGVG here?
Answer: 0.708 ± 0.069

Question: For FGTATPPPTLPP, which protein stability index is on record?
Answer: 0.727 ± 0.02

Question: VIMAEVLCVSNL was tested. Which protein stability index did it give?
Answer: 0.508 ± 0.0071

Question: LYITLLEFKEGR was tested. Which protein stability index did it give?
Answer: 0.643 ± 0.025

Question: For SLKIHIKQIEKK, which protein stability index is on record?
Answer: 0.766 ± 0.022

Question: Which protein stability index does the source give for CIFFSPFSFLLP here?
Answer: 0.654 ± 0.035

Question: With PPPPPPPPPSSP as the sequence, how does the protein stability index read?
Answer: 0.701 ± 0.057

Question: PLRTRESIGARG was tested. Which protein stability index did it give?
Answer: 0.707 ± 0.038

Question: Which protein stability index does the source give for GWGGCGGWGFVG here?
Answer: 0.605 ± 0.011

Question: For RVFGSFLSGEQF, which protein stability index is on record?
Answer: 0.70035 ± 0.00058

Question: Which protein stability index does the source give for ACCPPRLAPPPL here?
Answer: 0.675 ± 0.016

Question: GRGWGWALGWCG was tested. Which protein stability index did it give?
Answer: 0.698 ± 0.0095

Question: DVDYGEIDYQIK was tested. Which protein stability index did it give?
Answer: 0.708 ± 0.011

Question: Which protein stability index does the source give for PGPPSTAPHLPE here?
Answer: 0.659 ± 0.018

Question: For GESWEKVMNKRM, which protein stability index is on record?
Answer: 0.704 ± 0.049

Question: For SPLPPSRSVHCA, which protein stability index is on record?
Answer: 0.748 ± 0.072

Question: How did the protein stability index turn out when FTYGPVQGAARG was run?
Answer: 0.717 ± 0.015

Question: Which protein stability index does the source give for LGWLCWQFFGGT here?
Answer: 0.795 ± 0.14

Question: How did the protein stability index turn out when FRSPRFLRSPPR was run?
Answer: 0.793 ± 0.064

Question: For SLTEAVHWDRIS, which protein stability index is on record?
Answer: 0.67 ± 0.032

Question: AGGPRVRGAAGR was tested. Which protein stability index did it give?
Answer: 0.698 ± 0.055

Question: Which protein stability index does the source give for MIIPTVLCRVDL here?
Answer: 0.661 ± 0.022

Question: Which protein stability index does the source give for PISTHYGSAVFM here?
Answer: 0.692 ± 0.029

Question: Which protein stability index does the source give for RGRAVGGARKFG here?
Answer: 0.739 ± 0.029

Question: For WTGGEEGTAVQA, which protein stability index is on record?
Answer: 0.676 ± 0.025

Question: With PRSPLRYPPHCP as the sequence, how does the protein stability index read?
Answer: 0.691 ± 0.035

Question: For NRTGVRIEIKGR, which protein stability index is on record?
Answer: 0.636 ± 0.081

Question: How did the protein stability index turn out when GDVRLWMRGIER was run?
Answer: 0.803 ± 0.077

Question: How did the protein stability index turn out when LWGGPLLLPVCL was run?
Answer: 0.577 ± 0.013
